This passage reports protein stability index results from the supplement of paper PMC10567573.

B1: CPXM2 (parent)
chain: EILGCPLPDPNNYYHRRNEMTTTD
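Also: lentivirally expressed fusions sorted by FACS into six bins by GFP to DsRed ratio, PSI derived from sequencing read proportions per bin multiplied by bin number.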

The data set covers variants of B1. Briefly: protein stability index of a GFP-peptide fusion (GPS, HEK-293T) (PSI 1-6); higher = more stable. The settings on record: c terminus: a fixed tail appended.
With EILGCPLPDPNNYYHNRNEMTTTD, the protein stability index worked out at 3.82.
Regarding EILGCPLPDPNNYYHSRNEMTTTD, the protein stability index is 4.14.
For EILGCPLPDPNNYYHGRNEMTTTD, the protein stability index worked out at 4.
The same measure for EILGCPLPDPNNYYHRRNTMTTTD: 2.95.
The same measure for EILGCPLPDPNNYYHRRNRMTTTD: 3.16; for EILGCPLPDPNNYYHRRNNMTTTD: 3.3; for EILGCPLPDPNNYYHRRNQMTTTD: 3.31.
The same measure for EILGCPLPDPNNYYHRRNPMTTTD: 2.86.
As for EILGCPLPDPNNYYHRRNLMTTTD, the protein stability index was 2.22.
The same measure for EILGCPLPDPNNYYHRRNSMTTTD: 3.46.
The same measure for EILGCPLPDPNNYYHRRNAMTTTD: 2.89.
For EILGCPLKDPNNYYHRRNEMTTTD, the protein stability index is 3.58.
Under EILGCPLVDPNNYYHRRNEMTTTD stands 3.01.
The same measure for EILGCPLNDPNNYYHRRNEMTTTD: 3.31.
The same measure for EILGCPLYDPNNYYHRRNEMTTTD: 2.71.
As for EILGCPLIDPNNYYHRRNEMTTTD, the protein stability index worked out at 3.14.
Under EILGCPLFDPNNYYHRRNEMTTTD stands 2.61.
Under EILGCPLGDPNNYYHRRNEMTTTD stands 3.8.
Turning to EILGCPLRDPNNYYHRRNEMTTTD, the protein stability index was determined as 3.56.
On to EILGYPLPDPNNYYHRRNEMTTTD, for which the protein stability index came to 2.96.
Regarding EILGDPLPDPNNYYHRRNEMTTTD, the protein stability index was 4.09.
The same measure for EILGLPLPDPNNYYHRRNEMTTTD: 3.62.
The same measure for EILGPPLPDPNNYYHRRNEMTTTD: 4.42; for EILGRPLPDPNNYYHRRNEMTTTD: 3.54; for EILGKPLPDPNNYYHRRNEMTTTD: 4.08.
Under EILGGPLPDPNNYYHRRNEMTTTD stands 3.76; under EILGEPLPDPNNYYHRRNEMTTTD, 4.07.
EILGCPSPDPNNYYHRRNEMTTTD: the protein stability index was determined as 4.14.
Under EILGCPQPDPNNYYHRRNEMTTTD stands 3.68.
With EILGCPWPDPNNYYHRRNEMTTTD, the protein stability index stood at 3.32.
EILGCPYPDPNNYYHRRNEMTTTD: the protein stability index was determined as 3.61.
As to EILGCPLPDPNNYYHRRNEMTTKD, the protein stability index is 3.46.
Under EILGCPLPDPNNYYHRRNEMTTWD stands 2.48; under EILGCPLPDPNNYYHRRNEMTTID, 3.55.
The same measure for EILGCPLPDPNNYYHRRNEMTTMD: 2.78; for EILGCPLPDPNNYYHRRNEMTTDD: 3.85.
The same measure for EILGCPLPDPNNYYHRRNEMTTLD: 3.07; for EILGCPLPDPNNYYHRRNEMTTFD: 2.43.
Regarding EILGCPLPDPNNYYHRRNEMTTYD, the protein stability index is 3.13.
The same measure for EILGCPLPDPNNYYHRRNEMTTND: 3.48.
As for EILHCPLPDPNNYYHRRNEMTTTD, the protein stability index amounted to 3.71.
The same measure for EILMCPLPDPNNYYHRRNEMTTTD: 3.15.
As for EILWCPLPDPNNYYHRRNEMTTTD, the protein stability index was found to be 2.77.
The same measure for EILRCPLPDPNNYYHRRNEMTTTD: 3.73; for EILSCPLPDPNNYYHRRNEMTTTD: 3.57.
With EILLCPLPDPNNYYHRRNEMTTTD, the protein stability index came out at 2.69.
The same measure for EILACPLPDPNNYYHRRNEMTTTD: 3.35; for EILVCPLPDPNNYYHRRNEMTTTD: 3.41.
The same measure for EILICPLPDPNNYYHRRNEMTTTD: 2.72; for EILECPLPDPNNYYHRRNEMTTTD: 4.09.
The same measure for EILGCPLPDPNNYYHRRMEMTTTD: 2.91; for EILGCPLPDPNNYYHRRTEMTTTD: 3.6; for EILGCPLPDPNNYYHRREEMTTTD: 4.01.
On to EILGCPLPDPNNYYHRRLEMTTTD, for which the protein stability index was 2.51.
Regarding EILGCPLPDPNNYYHRRIEMTTTD, the protein stability index turned out to be 2.79.
The same measure for EILGCPLPDPNNYYHRRCEMTTTD: 3.59; for EILGCPLPDPNNYYHRRSEMTTTD: 3.26.
In the case of EILGCPLPDPNNYYHRRWEMTTTD, the protein stability index stood at 2.16.
Under EILGCPLPDPNNYYHRRNEMWTTD stands 1.65; under EILGCPLPDPNNYYHRRNEMQTTD, 3.6.
The same measure for EILGCPLPDPNNYYHRRNEMLTTD: 2.97; for EILGCPLPDPNNYYHRRNEMPTTD: 3.08.
Under EILGCPLPDPNNYYHRRNEMNTTD stands 3.45; under EILGCPLPDPNNYYHRRNEMSTTD, 3.52; under EILGCPLPDPNNYYHRRNEMFTTD, 2.77.
Turning to EILGCPLPDPNNYYHRRNEMATTD, the protein stability index turned out to be 3.6.
For the variant EILGCPLPDPNNYYHRRNEMETTD, the protein stability index worked out at 4.27.
For EILGCPLPDPNNYYHRRNEMITTD, the protein stability index is 2.77.
As to EILGCPLPDPNNYSHRRNEMTTTD, the protein stability index stood at 4.38.
Under EILGCPLPDPNNYLHRRNEMTTTD stands 3.68.
Under EILGCPLPDPNNYVHRRNEMTTTD stands 3.81.
The same measure for EILGCPLPDPNNYFHRRNEMTTTD: 3.69.
For EILGCPLPDPNNYAHRRNEMTTTD, the protein stability index is 4.18.
The same measure for EILGCPLPDPNNYTHRRNEMTTTD: 4.29.
The same measure for EILGCPLPDPNNYCHRRNEMTTTD: 4.04.
Under EILGCPLPDPNNYEHRRNEMTTTD stands 4.59; under EILGCPLPDPDNYYHRRNEMTTTD, 3.57.
Turning to EILGCPLPDPSNYYHRRNEMTTTD, the protein stability index came to 3.16.
For the variant EILGCPLPDPINYYHRRNEMTTTD, the protein stability index came to 2.48.
Take EILGCPLPDPKNYYHRRNEMTTTD: the protein stability index worked out at 3.47.
Under EILGCPLPDPVNYYHRRNEMTTTD stands 3.38.
Under EILGCPLPDPYNYYHRRNEMTTTD stands 3.13.
Under EILGCPLPDPPNYYHRRNEMTTTD stands 3.84; under EILGCPLPDPQNYYHRRNEMTTTD, 3.73.
EILGCPLPDPCNYYHRRNEMTTTD: the protein stability index worked out at 2.72.
Under EILGCPLPDPNNYYHRRNEMTTTS stands 3.27; under EILGCPLPDPNNYYHRRNEMTTTL, 2.46.
Under EILGCPLPDPNNYYHRRNEMTTTT stands 2.82; under EILGCPLPDPNNYYHRRNEMTTTI, 1.82; under EILGCPLPDPNNYYHRRNEMTTTC, 2.86.
As to EILGCPLPDPNNYYHRRNEMTTTG, the protein stability index came to 2.76.
The same measure for EILGCPLPDPNNYYHRRNEMTTTN: 3.07; for EILGCPLPDPNNYYHRRNEMTTTW: 1.86; for EILGCPLPDPNNYYHRRNEMTTTH: 2.76.
